Results reported in US20040005543, “Compositions and methods for binding agglomeration proteins” (published 2004).

Tests used:
[1] = target: T1, hrPrP23-231 (recombinant human prion protein, full length) (Homo sapiens, UniProt P04156 P04156:23-231); assay: filter; no tRNA; 2 mM MgCl2, 250 mM NaCl, 37 C; conditions: tags: provided by Man-Sun Sy, Case Western; label: internal 32P
[2] = target: T2, hrPrP23-144 (N-terminal portion) (Homo sapiens, UniProt P04156 P04156:23-144); assay: filter; 20 nM protein, Buffer B with tRNA; conditions: tags: provided by Man-Sun Sy, Case Western; label: internal 32P
[3] = target: BSA (bovine serum albumin) (UniProt P02769 P02769:25-607); assay: filter; Buffer A with 10 ng/uL tRNA; background level; conditions: tags: Ultra-pure BSA, Ambion; label: internal 32P
[4] = target: hrPrP90-231 (C-terminal portion) (Homo sapiens, UniProt P04156 P04156:90-231); assay: filter; 20 nM protein; no detectable binding; conditions: tags: provided by Man-Sun Sy, Case Western, label: internal 32P
[5] = target: lysozyme (UniProt P00698 P00698:19-147); assay: filter; 2 nM RNA, 20 nM protein, Buffer A with 10 ng/uL tRNA; background level; conditions: label: internal 32P
[6] = target: T2, hrPrP23-144 (N-terminal portion); assay: filter; 20 nM protein, no tRNA; conditions: tags: provided by Man-Sun Sy, Case Western; label: internal 32P
[7] = target: T1, hrPrP23-231 (recombinant human prion …); assay: filter; […]; 2 mM MgCl2, 250 mM NaCl, 37 C; […]; conditions: tags: provided by Man-Sun Sy, Case Western; label: internal 32P; G4 (AP1 insert)
[8] = target: T1, hrPrP23-231 (recombinant human prion …); assay: filter; with 10 ng/uL tRNA; 250 mM NaCl, 37 C; conditions: tags: provided by Man-Sun Sy, Case Western; label: internal 32P

B1: RQT157 (ssRNA)
RNA: GGGGUUUCGAACCGGAAUUUGAGGGAUGCCUAGGCAUCCCCCGUGCGUCCCUUUACGAGGGAUUGUCGACUCUAGAGGAUCCGGUACCUGAGGGAUGCCUAGGCAUCCCCGCGCGCCGGUUUCGGACCUCCAGUGCGUGUUACCGCACUGUCGACCC
In the case of B1, the Kd [1] is reported as 56 nM.

B2: RQ11+12 (ssRNA)
RNA: GGGGUUUCCAACCGGAAUUUGAGGGAUGCCUAGGCAUCCCCCGUGCGUCCCUUUACGAGGGAUUGUCGACUCUAGUCGACGUCUGGGCGAAAAAUGUACGAGAGGACCUUUUCGGUACAGACGGUACCUGAGGGAUGCCUAGGCAUCCCCCGCGCCGGUUUCGGACCUCCAGUGCGUGUUACCGCACUGUCGACCC
B2: binds [2]; no binding [3]; no binding [4]. B2: no binding [5].

B3: MNV (ssRNA)
RNA: GGGUUCAUAGCCUAUUCGGCUUUUAAAGGACCUUUUUCCCUCGCGUAGCUAGCUACGCGAGGUGACCCCCCGAAGGGGGGUGCCCC
B3: no binding [4]; binds [6].

B4: MNV:AP1 (PrP-Amp) (ssRNA)
RNA: GGGUUCAUAGCCUAUUCGGCUUCGCGCAUGGGAAUUUGAGGGACGAUGGGGAAGUGGGAGCGCGUUUUAAAGGACCUUUUUCCCUCGCGUAGCUAGCUACGCGAGGUGACCCCCCGAAGGGGGGUGCCCC
For B4, the binding result ([4]; G4 (AP1 insert)) was “no binding” and the Kd [7] was 3.8 nM.

For GGGAAUUUGAGGACGAUGGUAAGUGG (ssRNA) [AP46], the Kd [1] was 14 nM and the Kd [8] was 100 nM.
